Laboratory results published in publication PMC8273888.

Key:
[1] = system: [H][C@]12SCC(CS[C@H](Cc3ccccc3)C(=O)O)=C(C(=O)O)N1C(=O)[C@H]2NC(=O)Cc1ccccc1; assay: purified protein, by the assay type; conditions: pH 7.2, 25.0 °C
[2] = system: [H][C@]12SCC(CSC(C(=O)O)c3ccccc3)=C(C(=O)O)N1C(=O)[C@H]2NC(=O)Cc1ccccc1; assay: purified protein, by the assay type; conditions: pH 7.2, 25.0 °C
[3] = other: compound as substrate of NDM-1
[4] = other: compound as substrate of VIM-2

Substance | Km [1, 3] [µM] | kcat [1, 3] [s⁻¹] | kcat/Km [1, 3] [M⁻¹ s⁻¹] | Km [2, 3] [µM] | kcat [2, 3] [s⁻¹] | kcat/Km [2, 3] [M⁻¹ s⁻¹] | Km [1, 4] [µM] | kcat [1, 4] [s⁻¹] | kcat/Km [1, 4] [M⁻¹ s⁻¹] | Km [2, 4] [µM] | kcat [2, 4] [s⁻¹] | kcat/Km [2, 4] [M⁻¹ s⁻¹]
NDM-1 (Klebsiella pneumoniae) | 21.2 ± 4 | 17.4 | 821000 | 14.0 ± 2 | 13.1 | 936000 |  |  |  |  |  | 
VIM-2 (Escherichia coli) |  |  |  |  |  |  | 4.30 ± 1 | 2.35 | 546000 | 8.28 ± 2 | 4.06 | 490000
